# Test results taken from patent US20220348651A1 (Novartis, published 2022).
# B1: ANTI-HUMAN ENTPD2 MAB1 (antibody, human IgG1, kappa)
# heavy: not shown
# light: DIQLTQSPSSLSASVGDRVTITCSASSSVSYIHWFQQKPGKAPKLLIYSTSNLASGVPSRFSGSGSGTFFTLTISSLQPEDFATYFCHQWSSYPWTFGQGTKVEIKRTVAAPSVFIFPPSDEQLKSGTASVVCLLNNFYPREAKVQWKVDNALQSGNSQESVTEQDSKDSTYSLSSTLTLSKADYEKHKVYACEVTHQGLSSPVTKSFNRGEC
# notes: humanized from mAb17; human IgG1, kappa; also called anti-ENTPD2 mAb1
# Target: recombinant human ENTPD2 extracellular domain (residues 29-462) with C-terminal Avi-His6 tag (human, UniProt Q9Y5L3 29-462, biotinylated on the AviTag in the epitope binning assay)
# Experiment: cell-based or functional assay
# Sequence of recombinant human ENTPD2 extracellular domain (residues 29-462) with C-terminal Avi-His6 tag (Q9Y5L3 29-462): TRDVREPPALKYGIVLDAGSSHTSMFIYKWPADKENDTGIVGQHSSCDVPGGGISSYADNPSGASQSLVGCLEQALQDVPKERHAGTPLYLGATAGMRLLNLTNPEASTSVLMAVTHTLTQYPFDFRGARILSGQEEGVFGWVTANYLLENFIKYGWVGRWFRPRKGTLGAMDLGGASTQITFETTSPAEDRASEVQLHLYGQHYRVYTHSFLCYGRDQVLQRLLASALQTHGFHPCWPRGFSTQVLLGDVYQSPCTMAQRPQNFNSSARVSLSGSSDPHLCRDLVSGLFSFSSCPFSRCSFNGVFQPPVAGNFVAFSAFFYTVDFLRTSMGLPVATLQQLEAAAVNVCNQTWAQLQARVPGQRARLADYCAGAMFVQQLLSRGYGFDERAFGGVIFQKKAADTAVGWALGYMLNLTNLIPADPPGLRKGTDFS
binder,measurement,value
B1,"IC50, ENTPD2 Biochemical Assay at 1 uM ATP",0.52 nM
